{"source": "paper doi:10.1101/567099", "about": "(bioRxiv, 2019)", "proteins": {"B1": {"name": "MBP-TorsinA (human TorsinA residues 51-332, N-terminal MBP tag) (domain or fragment)", "chain": "GQKRSLSREALQKDLDDNLFGQHLAKKIILNAVFGFINNPKPKKPLTLSLHGWTGTGKNFVSKIIAENIYEGGLNSDYVHLFVATLHFPHASNITLYKDQLQLWIRGNVSACARSIFIFDEMDKMHAGLIDAIKPFLDYYDLVDGVSYQKAMFIFLSNAGAERITDVALDFWRSGKQREDIKLKDIEHALSVSVFNNKNSGFWHSSLIDRNLIDYFVPFLPLEYKHLKMCIRVEMQSRGYEIDEDIVSRVAEEMTFFPKEERVFSDKGCKTVFTKLDYYYDD"}, "B2": {"name": "TorsinA (human, residues 51-332) after cleavage of the MBP tag with 3C protease (domain or fragment)", "chain": "B1 chain"}, "B3": {"name": "TorsinA K174A (human, residues 51-332) (domain or fragment)", "chain": "B1 chain with K124A"}, "B4": {"name": "TorsinA K174E (human, residues 51-332) (domain or fragment)", "chain": "B1 chain with K124E"}, "B5": {"name": "TorsinA H140N (human, residues 51-332) (domain or fragment)", "chain": "B1 chain with H90N"}}, "key": {"SEC": {"target": "the molecule itself", "assay": "SEC"}, "[1]": {"target": "the molecule itself", "assay": "negative-stain electron microscopy"}}, "note": "Changes are numbered by the printed parent chain. Numbers in names are those of the source."}
{"protein": "B1", "values": [{"measurement": "binding result", "setting": "SEC", "result": "binds"}]}
{"protein": "B2", "values": [{"measurement": "binding result", "setting": "[1]", "result": "binds"}]}
{"protein": "B3", "values": [{"measurement": "binding result", "setting": "[1]", "result": "binds"}]}
{"protein": "B4", "values": [{"measurement": "binding result", "setting": "[1]", "result": "binds"}]}
{"protein": "B5", "values": [{"measurement": "binding result", "setting": "[1]", "result": "binds"}]}
